According to PMC11237882 (Protein Science : A Publication of the Protein Society, 2024):

Experiments:
[1] = molecular target: ddEVH1 (D. discoideum EVH1 domain of ddVASP) (Dictyostelium discoideum, UniProt Q5TJ65)
[2] = system: ENAH EVH1 domain tetramers; test: Peptide SPOT array, ENAH EVH1 domain tetramers; type: binding, human; conditions: SPOT intensities, tetrameric EVH1, 0.5 μM monomer
Description: Protein expression was carried out as above.
ABI3 substitution and overlapping motif SPOT arrays were synthesized at the MIT Biopolymer Facility using an Intavis SPOT synthesis peptide arrayer system. At the N‐terminus, the 20‐mer peptides were capped with a Gly‐Ser linker and acetylated. The peptides were linked to the cellulose membrane by a C‐terminal PEG spacer. For the overlapping motif array, because many of the peptide sequences contain additional Ena/VASP and Homer motifs, each peptide was also synthesized as a control where the internal proline tract was mutated to poly‐glycine. The protocol for blocking and probing the membrane was adapted from Frank and Dübel ([2006]). […] The following day, the array was washed in T‐TBS (TBS + 0.05% Tween‐20) and then incubated with the protein sample in MBS (+1 μM DTT) for 3 h at room temperature. All array experiments were carried out with streptavidin‐Cy3 (Thermo Fisher) pre‐tetramerized EVH1 at a final monomer concentration of 0.5 μM. The membrane was washed three times in T‐TBS prior to scanning on a GE Amersham Imager 680. SPOT intensities were calculated using the ImageJ analysis software (Abràmoff et al., [2004]). No background correction was performed. For the overlapping peptides, the final intensity was calculated as the difference between the intensity of the wild‐type and motif knockout control. […]

Homer1 EVH1 domain = Homer1 EVH1 domain (Homo sapiens, UniProt Q86YM7); conditions: read-out: K D ^Homer1; pH 7.6; SD
Sequence of Homer1 EVH1 domain (Q86YM7 with tags, fused parts or gaps): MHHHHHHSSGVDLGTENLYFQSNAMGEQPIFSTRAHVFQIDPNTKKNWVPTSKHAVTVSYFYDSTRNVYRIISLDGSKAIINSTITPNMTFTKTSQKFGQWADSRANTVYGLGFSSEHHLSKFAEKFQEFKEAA

Sequence of ddEVH1 (D. discoideum EVH1 domain of ddVASP) (Q5TJ65 with tags, fused parts or gaps): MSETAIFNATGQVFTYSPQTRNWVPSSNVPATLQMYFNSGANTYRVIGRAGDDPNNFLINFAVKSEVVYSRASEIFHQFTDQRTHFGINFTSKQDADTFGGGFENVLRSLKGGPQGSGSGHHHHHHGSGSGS

## DIESDFPPPPEDFPAADELP [FAT1]
[1]
  ddEVH1 binding, result in words: bound poorly
[2]
  Binding to ENAH relative to Homer1 EVH1 in the SPOT array assay: two‐ to three‐fold better
Homer1 EVH1 domain
  Kd: 98 ± 7 µM
